We go through one molecule from patent publication US20060212953, “Tr2, tr4, tr2/tr4 double knockouts and uses thereof” (published 2006).

This data set deals with T1, TR4 (testicular orphan nuclear receptor 4, NR2C2) (UniProt P49116 SEQ:1-596).
T1 sequence: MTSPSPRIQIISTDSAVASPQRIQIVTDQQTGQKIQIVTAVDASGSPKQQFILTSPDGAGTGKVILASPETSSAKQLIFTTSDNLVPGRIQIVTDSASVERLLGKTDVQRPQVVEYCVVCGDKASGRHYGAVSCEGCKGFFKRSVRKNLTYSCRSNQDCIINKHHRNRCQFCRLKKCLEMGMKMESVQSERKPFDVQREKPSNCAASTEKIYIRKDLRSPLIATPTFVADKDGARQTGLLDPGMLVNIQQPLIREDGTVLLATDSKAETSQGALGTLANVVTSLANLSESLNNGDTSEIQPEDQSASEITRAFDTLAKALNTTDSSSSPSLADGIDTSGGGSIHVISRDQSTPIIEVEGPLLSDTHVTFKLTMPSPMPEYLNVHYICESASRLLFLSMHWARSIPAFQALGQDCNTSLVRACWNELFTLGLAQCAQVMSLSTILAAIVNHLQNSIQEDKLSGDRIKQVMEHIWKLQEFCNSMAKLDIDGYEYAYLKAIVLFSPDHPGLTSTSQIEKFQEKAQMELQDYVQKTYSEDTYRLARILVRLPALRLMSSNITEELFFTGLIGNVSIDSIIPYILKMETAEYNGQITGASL
Kind of data set: EMSA; supershifted by monoclonal anti-TR4 antibody #15; 10 mM HEPES pH 7.9, 100 mM KCl, 2.5 mM MgCl2, 0.5 mM EDTA, 1 mM DTT, room temperature 15 min. The following applies: tags: rabbit reticulocyte lysate (Promega); label: 32P 5' end. Here is the method: TR4 proteins were synthesized in rabbit reticulocyte lysate (Promega), according to the manufacturer's instructions. The oligonucleotide probe (SEQ ID NO:46 nNOS-NHR, bp-198 to -211, 5′-[…]-3′) was end-labeled with [γ]³²P in a T4 polynucleotide kinase reaction (New England Biolabs). The EMSA reaction was performed with 2 μl TR4-containing lysate in an EMSA buffer (10 mM HEPES, pH 7.9, 6% (v/v) glycerol, 2% (v/v) Ficoll, 100 mM KCl, 0.5 mM EDTA, 2.5 mM MgCl₂, and 1 mM dithiothreitol). The reaction mixtures were incubated for 15 min. at room temperature, in the presence or absence of a mouse monoclonal anti-TR4 antibody (#15). The protein-DNA complexes were analyzed on a 5% native polyacrylamide gel. The results were visualized by autoradiography (Storm PhosphorImaging System, Amersham Pharmacia).

B1: nNOS-NHR probe (dsDNA)
DNA 1: CTGGTCAACCTTGACTTCCTT
DNA 2: AAGGAAGTCAAGGTTGACCAG
Regarding B1, the binding result was “binds”.
